These results are taken from patent publication US20140038834.

The subject of data set [1] is HPLC-purified bovine NfH (phosphorylated).
In data set [2] the test system is dephosphorylated HPLC-purified bovine NfH (treated with alkaline phosphatase).

In the case of “enterokinase (EK, EC 3.4.21.9, Roche, Cat No 11 334115001)”, the “limited proteolysis, cleavage products seen by immunoblot” value was “The described in vivo cleavage products can be reproduced in vitro by incubation of purified NfH with enterokinase (FIG. 2D, lane 4 and FIG. 2E, lane 8)” in data set [1]; “The described in vivo cleavage products can be reproduced in vitro by incubation of purified NfH with enterokinase (FIG. 2D, lane 4 and FIG. 2E, lane 8)” in data set [2].
